According to US20240384250A1 (UAB RESEARCH FOUNDATION, published 2024):

T1: Fc-tagged human FGFR4 ectodomain (human, UniProt P22455 22-369)
T1 construct: extracellular domain; Bought; also called Fc-FGFR4; not shown: Fc tag
T1 sequence (looked up): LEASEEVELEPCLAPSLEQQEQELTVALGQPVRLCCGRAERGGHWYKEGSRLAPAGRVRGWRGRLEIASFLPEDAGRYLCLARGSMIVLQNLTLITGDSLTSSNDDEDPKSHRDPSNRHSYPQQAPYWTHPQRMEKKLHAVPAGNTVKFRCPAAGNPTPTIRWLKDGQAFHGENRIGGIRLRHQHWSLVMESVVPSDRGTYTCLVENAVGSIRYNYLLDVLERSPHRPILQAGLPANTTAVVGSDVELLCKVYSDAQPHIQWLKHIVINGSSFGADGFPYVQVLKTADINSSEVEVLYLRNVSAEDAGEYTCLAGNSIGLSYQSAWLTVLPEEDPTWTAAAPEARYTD

T2: recombinant FGF23 protein (species not stated for the assay)
T2 construct: also called fibroblast growth factor 23
T2 sequence (Q9GZV9 25-251, species assumed, looked up): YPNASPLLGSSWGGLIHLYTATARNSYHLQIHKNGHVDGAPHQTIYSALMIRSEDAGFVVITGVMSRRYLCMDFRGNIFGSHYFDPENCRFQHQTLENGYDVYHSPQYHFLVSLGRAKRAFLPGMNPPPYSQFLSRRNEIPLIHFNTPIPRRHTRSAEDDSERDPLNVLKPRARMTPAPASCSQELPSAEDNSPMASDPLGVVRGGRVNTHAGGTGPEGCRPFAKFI

B1: human FGF21 (ligand, UniProt Q9NSA1 29-209, looked up)
chain: HPIPDSSPLLQFGGQVRQRYLYTDDAQQTEAHLEIREDGTVGGAADQSPESLLQLKALKPGVIQILGVKTSRFLCQRPDGALYGSLHFDPEACSFRELLLEDGYNVYQSEAHGLPLHLPGNKSPHRDPAPRGPARFLPLPGLPPALPEPPGILAPQPPDVGSSDPLSMVGPSQGRSPSYAS
B2: FLAG-tagged sKL-N694Q (receptor)
chain: EPGDGAQTWARFSRPPAPEAAGLFQGTFPDGFLWAVGSAAYQTEGGWQQHGKGASIWDTFTHHPLAPPGDSRNASLPLGAPSPLQPATGDVASDSYNNVFRDTEALRELGVTHYRFSISWARVLPNGSAGVPNREGLRYYRRLLERLRELGVQPVVTLYHWDLPQRLQDAYGGWANRALADHFRDYAELCFRHFGGQVKYWITIDNPYVVAWHGYATGRLAPGIRGSPRLGYLVAHNLLLAHAKVWHLYNTSFRPTQGGQVSIALSSHWINPRRMTDHSIKECQKSLDFVLGWFAKPVFIDGDYPESMKNNLSSILPDFTESEKKFIKGTADFFALCFGPTLSFQLLDPHMKFRQLESPNLRQLLSWIDLEFNHPQIFIVENGWFVSGTTKRDDAKYMYYLKKFIMETLKAIKLDGVDVIGYTAWSLMDGFEWHRGYSIRRGLFYVDFLSQDKMLLPKSSALFYQKLIEKNGFPPLPENQPLEGTFPCDFAWGVVDNYIQVDTTLSQFTDLNVYLWDVHHSKRLIKVDGVVTKKRKSYCVDFAAIQPQIALLQEMHVTHFRFSLDWALILPLGNQSQVNHTILQYYRCMASELVRVNITPVVALWQPMAPNQGLPRLLARQGAWENPYTALAFAEYARLCFQELGHHVKLWITMNEPYTRQMTYSAGHNLLKAHALAWHVYNEKFRHAQNGKISIALQADWIEPACPFSQKDKEVAERVLEFDIGWLAEPIFGSGDYPWVMRDWLNQRNNFLLPYFTEDEKKLIQGTFDFLALSHYTTILVDSEKEDPIKYNDYLEVQEMTDITWLNSPSQVAVVPWGLRKVLNWLKFKYGDLPMYIISNGIDDGLHAEDDQLRVYYMQNYINEALKAHILDGINLCGYFAYSFNDRTAPRFGLYRYAADQFEPKASMKHYRKIIDSNGFPGPETLERFCPEEFTVCTECSFFHTRKS
notes: Human assignment as for m24; Tested in HEK293 media and as protein purified from supernatants; also called N6940 and sKL-N6940; not shown: C-terminal FLAG/His tag

Columns and labels:
[1] = target: T1, Fc-tagged human FGFR4 ectodomain; assay: pull-down: Fc-FGFR on protein A/G beads, then FGF21 with PBS, FLAG-sKL or heparin; Western blot with anti-FGF21
Experimental: To study the interaction between Fc-tagged FGFR isoforms (Fc-FGFR), FGF isoforms, and sKL, immunoprecipitation studies were conducted. Protein A beads (6501, BioVision) and protein G beads (6511, BioVision) were used at 25 μl of a 50% stock slurry per sample in a total bead volume of 50 μl. Beads were washed 5× in activity buffer (50 mM Tris [pH 7.4], 200 mM NaCl, 0.01% Tween 20). Bead spin-down assays were all performed for 2 minutes at 5000 g. Beads were resuspended in 1 ml of activity buffer in a 1.5-ml snap cap tube. One microgram of Fc-FGFR1 to 4 was incubated with the beads for 1 hour on a bead rotator. Control samples were incubated with 2 μg of anti-FGF antibody instead of Fc-FGFR. Beads were then pelleted at 5000 g for 2 minutes and washed 5× with activity buffer. Beads were resuspended and incubated with different combinations of 500 ng of FGF, 1 μg of sKL, 1.6 United States Pharmacopeia (USP) units of heparin, or phosphate-buffered saline (PBS). Beads were incubated for 1 hour on a tube rotator, and beads were pelleted and washed as before. One hundred microliters of 1× Laemmli sample buffer (1610737, Bio-Rad) with 1.42 M 2-mercaptoethanol was added, and samples were boiled for 5 minutes. Samples were analyzed using SDS-PAGE and Western blotting.

[2] = target: T2, recombinant FGF23 protein (species not …); assay: plate assay: 100 ng FGF23 coated, 400 ng purified FLAG-tagged sKL-N694Q or wildtype, anti-FLAG-HRP (FIG. 25E)
Experimental: Plates were coated with 100 ng of FGF23 or 200 ng of FGFR1c and incubated with 400 ng of purified FLAG-tagged wildtype sKL or sKL-N694Q.

| Binder | binding result [1] | fold increase in FGF23 binding against the wildtype protein [2] |
| --- | --- | --- |
| B1 | no binding (tested: 500 ng FGF21 (Methods paragraph 182)) |  |
| B2 |  | 3 fold |
